Source: patent US20120058906A1 (published 2012)
Each block holds one binder with its values, some of them ahead of it.

Experiments:
[1] = molecular target: T1, rHuman IGF-1 sR (IGF-1 sR), CF (R&D Systems Cat#391-GR) (human, UniProt P08069 31-932); experiment: MSD ECL multi-spot plate, antigen immobilized; Fab 40 nM; blank spot 518
T1 construct: Purchased soluble receptor; also called insulin-like growth factor-1 soluble receptor; IGF-R1

[2] = molecular target: T2, Recombinant Human DLL4 (R&D Systems Cat#1506-D4/CF) (human, UniProt Q9NR61 27-524); experiment: as above
T2 construct: Purchased recombinant protein; also called delta-like protein 4

[3] = molecular target: T3, rHuman Notch-1/Fc Chimera, CF (R&D Systems Cat#3647-TK) (human, UniProt P46531 19-526); experiment: as above
T3 construct: Purchased Fc chimera; not shown: Fc portion of the purchased chimera

[4] = molecular target: T4, rHuman CD44/Fc Chimera, CF (R&D Systems Cat#3660-CD) (human, UniProt P16070 21-220); experiment: as above
T4 construct: Purchased Fc chimera; not shown: Fc portion of the purchased chimera

[5] = molecular target: T5, rHuman P-Cadherin/Fc Chimera, CF (R&D Systems Cat#861-PC) (human, UniProt P22223 108-654); experiment: as above
T5 construct: Purchased Fc chimera; not shown: Fc portion of the purchased chimera

[6] = molecular target: T6, rHuman HGF R/c-MET/Fc Chimera, CF (R&D Systems Cat#358-MT/CF) (human, UniProt P08581 25-932); experiment: as above
T6 construct: Purchased Fc chimera; also called HGF R/Fc; not shown: Fc portion of the purchased chimera

[7] = molecular target: T7, rHuman EGF R/Fc Chimera, CF (R&D Systems Cat#344-ER) (human, UniProt P00533 25-645); experiment: as above
T7 construct: Purchased Fc chimera; not shown: Fc portion of the purchased chimera

[8] = molecular target: T8, rHuman ErbB2/Fc Chimera, CF (R&D Systems Cat#1129-ER) (human, UniProt P04626 23-652); experiment: as above
T8 construct: Purchased Fc chimera; also called HER2/neu; not shown: Fc portion of the purchased chimera

[9] = molecular target: T9, rHuman Erythropoietin R/Fc Chimera, CF (R&D Systems Cat#963-ER) (human, UniProt P19235 25-250); experiment: as above
T9 construct: Purchased Fc chimera; also called EPO R/Fc; Epo R; not shown: Fc portion of the purchased chimera
T9 sequence: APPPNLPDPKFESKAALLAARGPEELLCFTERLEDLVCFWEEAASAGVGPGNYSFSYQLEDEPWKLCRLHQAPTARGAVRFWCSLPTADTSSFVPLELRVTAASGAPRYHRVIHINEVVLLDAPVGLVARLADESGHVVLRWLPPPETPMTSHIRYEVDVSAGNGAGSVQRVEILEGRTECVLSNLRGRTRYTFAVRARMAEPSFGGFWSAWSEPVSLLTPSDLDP

[10] = molecular target: T10, rHuman EGF R/Fc Chimera, CF (R&D Systems Cat#344-ER) (human, UniProt P00533 25-645); experiment: ECL (MSD multi-spot), antigen spotted on plate; Fab 352.5 nM; blank spot 494
T10 construct: Bought reagent; also called epidermal growth factor receptor; Fc part of the bought chimera not given

[11] = molecular target: T11, rHuman P-Cadherin/Fc Chimera, CF (R&D Systems Cat#861-PC) (human, UniProt P22223 108-654); experiment: as above
T11 construct: Bought reagent; also called CDH3; Fc part of the bought chimera not given

[12] = molecular target: T12, rHuman Notch-1/Fc Chimera, CF (R&D Systems Cat#3647-TK) (human, UniProt P46531 19-526); experiment: as above
T12 construct: Bought reagent; Fc part of the bought chimera not given

[13] = molecular target: T13, rHuman Erythropoietin R/Fc Chimera, CF (R&D Systems Cat#963-ER) (human, UniProt P19235 25-250); experiment: as above
T13 construct: Bought reagent; also called EPO R/Fc; Epo R; Fc part of the bought chimera not given
T13 sequence: T9 sequence

[14] = molecular target: T14, rHuman Erythropoietin R/Fc Chimera, CF (R&D Systems Cat#963-ER) (human, UniProt P19235 25-250); experiment: ECL (MSD Multi-Spot) binding assay, antigen spotted on plate; Fab 60 nM; blank spot 237
T14 construct: Bought Fc chimera; also called EPO R/Fc; Epo R; Fc part of the bought chimera not given
T14 sequence: T9 sequence

[15] = molecular target: T15, rHuman Notch-1/Fc Chimera, CF (R&D Systems Cat#3647-TK) (human, UniProt P46531 19-526); experiment: as above
T15 construct: Bought Fc chimera; Fc part of the bought chimera not given

[16] = molecular target: T16, rHuman CD44/Fc Chimera, CF (R&D Systems Cat#3660-CD) (human, UniProt P16070 21-220); experiment: as above
T16 construct: Bought Fc chimera; Fc part of the bought chimera not given

[17] = molecular target: T17, rHuman P-Cadherin/Fc Chimera, CF (R&D Systems Cat#861-PC) (human, UniProt P22223 108-654); experiment: as above
T17 construct: Bought Fc chimera; also called CDH3; Fc part of the bought chimera not given

[18] = molecular target: T18, Recombinant Human DLL4 (R&D Systems Cat#1506-D4/CF) (human, UniProt Q9NR61 27-524); experiment: as above
T18 construct: Bought recombinant protein; also called delta-like protein 4; rHuman DLL4
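Also: blank spot per well as comparator with Hit at signal to blank ratio of 4 or more.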

ECL signal [1]: 1270 ECL signal
ECL signal [2]: 35900 ECL signal
ECL signal [3]: 875 ECL signal
ECL signal [4]: 857 ECL signal
ECL signal [5]: 744 ECL signal
ECL signal [6]: 1310 ECL signal
ECL signal [7]: 1150 ECL signal
ECL signal [8]: 1390 ECL signal
ECL signal [9]: 979 ECL signal
B1: Fab VH5-51_IGHD5-18*01>3_IGHJ4*01_G100K & V3-4_IGLJ1*01 (Fab, V domains shown)
VH: EVQLVQSGAEVKKPGESLKISCKGSGYSFTSYWIGWVRQMPGKGLEWMGIIYPGDSDTRYSPSFQGQVTISADKSISTAYLQWSSLKASDTAMYYCARRKYSYGYDYFDYWGQGTLVTVSS
VL: QTVVTQEPSFSVSPGGTVTLTCGLSSGSVSTSYYPSWYQQTPGQAPRTLIYSTNTRSSGVPDRFSGSILGNKAALTITGAQADDESDYYCVLYMGSGISYVFGTGTKVTVL
notes: It was expressed as a Fab: CH1 with tags from Plasmid A and lambda CL from Plasmid E; also called Fab No. 22

ECL signal [10]: 769
ECL signal [11]: 649
ECL signal [12]: 715
ECL signal [13]: 4100
B2: Fab VH1-46_IGHD3-10*01_IGHJ4*01 & B3_IGKJ1*01 (Fab, V domains shown)
VH: QVQLVQSGAEVKKPGASVKVSCKASGYTFTSYYMHWVRQAPGQGLEWMGIINPSGGSTSYAQKFQGRVTMTRDTSTSTVYMELSSLRSEDTAVYYCAREYYYGSGSYYNDYFDYWGQGTLVTVSS
VL: not shown
notes: also called IGHV1-46*01

ECL signal [14]: 423
ECL signal [15]: 415
ECL signal [16]: 434
ECL signal [17]: 372
ECL signal [18]: 875
B3: Fab VH6-1_IGHD3-3*01_IGHJ4*01 & V4-3_IGLJ4*01 (Fab, V domains shown)
VH: QVQLQQSGPGLVKPSQTLSLTCAISGDSVSSNSAAWNWIRQSPSRGLEWLGRTYYRSKWYNDYAVSVKSRITINPDTSKNQFSLQLNSVTPEDTAVYYCAREYYDFWSGYYTDYFDYWGQGTLVTVSS
VL: QPVLTQPTSLSASPGASARLTCTLRSGINLGSYRIFWYQQKPESPPRYLLSYYSDSSKHQGSGVPSRFSGSKDASSNAGILVISGLQSEDEADYYCMIWHSSASFVFGGGTQLIIL
notes: Tested as a Fab made in E. coli; also called IGHV6-1*01
